The values that follow come from publication doi:10.1101/596171.

In this data set the target is T1, HIS-GST-Nxf3 (66-336), RRM-LRR domain (Drosophila melanogaster, UniProt Q8IQK4 66-336).
T1 sequence: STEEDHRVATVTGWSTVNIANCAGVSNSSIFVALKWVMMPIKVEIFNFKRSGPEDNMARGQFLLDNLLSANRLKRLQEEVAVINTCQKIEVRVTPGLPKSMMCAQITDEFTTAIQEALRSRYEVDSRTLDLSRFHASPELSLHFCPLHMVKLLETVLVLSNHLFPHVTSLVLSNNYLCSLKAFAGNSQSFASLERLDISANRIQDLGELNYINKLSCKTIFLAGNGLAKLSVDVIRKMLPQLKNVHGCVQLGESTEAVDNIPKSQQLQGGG
As to the kind of experiment: EMSA. On the technique in general: In EMSA bound probe runs differently from free probe, usually more slowly.

In the case of CUCAUCUUGGUCGUACGCGGAAUAGUUUAAACUGU (ssRNA) [35 nt ssRNA], the binding result was “binds”.
